Data published in PMC7005798 (2020).

Target: C3b (human, UniProt P01024 23-667; P01024 749-1663)
Experiment: SPR

C3b, sequence (P01024 23-667, chain 1 of 2): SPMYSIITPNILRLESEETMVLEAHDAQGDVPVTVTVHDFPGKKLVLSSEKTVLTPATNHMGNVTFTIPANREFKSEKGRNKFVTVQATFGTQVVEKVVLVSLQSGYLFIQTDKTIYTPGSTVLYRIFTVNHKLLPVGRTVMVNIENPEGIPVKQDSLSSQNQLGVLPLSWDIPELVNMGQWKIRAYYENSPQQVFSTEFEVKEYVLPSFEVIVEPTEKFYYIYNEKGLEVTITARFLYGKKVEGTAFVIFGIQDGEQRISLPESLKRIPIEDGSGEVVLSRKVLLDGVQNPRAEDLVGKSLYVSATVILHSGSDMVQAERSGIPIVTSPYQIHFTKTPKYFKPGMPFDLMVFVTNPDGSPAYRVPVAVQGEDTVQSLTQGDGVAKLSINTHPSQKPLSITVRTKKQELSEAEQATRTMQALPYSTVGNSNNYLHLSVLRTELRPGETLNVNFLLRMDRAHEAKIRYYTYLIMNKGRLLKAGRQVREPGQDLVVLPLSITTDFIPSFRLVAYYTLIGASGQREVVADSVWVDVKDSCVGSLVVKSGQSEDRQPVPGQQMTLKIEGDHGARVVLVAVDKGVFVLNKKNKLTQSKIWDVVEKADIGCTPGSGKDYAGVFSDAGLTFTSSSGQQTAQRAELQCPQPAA
C3b, sequence (P01024 749-1663, chain 2 of 2): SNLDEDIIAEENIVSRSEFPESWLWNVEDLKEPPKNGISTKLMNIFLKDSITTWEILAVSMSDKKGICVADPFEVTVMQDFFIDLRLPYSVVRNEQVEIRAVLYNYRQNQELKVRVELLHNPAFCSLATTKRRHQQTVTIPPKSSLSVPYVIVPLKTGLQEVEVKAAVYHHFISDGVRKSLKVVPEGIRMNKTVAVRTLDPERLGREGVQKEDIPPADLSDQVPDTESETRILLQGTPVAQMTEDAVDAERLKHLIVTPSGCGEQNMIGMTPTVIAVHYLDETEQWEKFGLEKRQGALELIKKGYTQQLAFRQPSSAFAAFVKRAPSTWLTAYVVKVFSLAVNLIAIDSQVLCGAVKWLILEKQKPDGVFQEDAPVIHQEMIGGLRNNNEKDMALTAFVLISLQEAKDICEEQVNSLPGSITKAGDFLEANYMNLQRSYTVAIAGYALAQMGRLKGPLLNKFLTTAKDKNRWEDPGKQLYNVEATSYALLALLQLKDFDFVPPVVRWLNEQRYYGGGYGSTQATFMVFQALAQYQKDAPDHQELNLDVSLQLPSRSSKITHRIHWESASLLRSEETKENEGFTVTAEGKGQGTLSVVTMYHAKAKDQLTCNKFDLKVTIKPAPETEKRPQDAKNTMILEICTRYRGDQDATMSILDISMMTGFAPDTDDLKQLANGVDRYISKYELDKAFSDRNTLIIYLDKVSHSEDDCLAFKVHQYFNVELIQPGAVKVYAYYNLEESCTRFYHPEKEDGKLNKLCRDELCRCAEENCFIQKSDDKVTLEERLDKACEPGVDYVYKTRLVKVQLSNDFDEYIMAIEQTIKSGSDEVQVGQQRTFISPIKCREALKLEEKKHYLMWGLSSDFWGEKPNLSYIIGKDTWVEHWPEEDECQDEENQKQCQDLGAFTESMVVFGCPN

Kd: 1100 nM
B1: Recombinant Factor H-Related Protein 4 (FHR-4), FHR-4B variant (natural protein)
chain: EVKPCDFPEIQHGGLYYKSLRRLYFPAAAGQSYSYYCDQNFVTPSGSYWDYIHCTQDGWSPTVPCLRTCSKSDIEIENGFISESSSIYILNKEIQYKCKPGYATADGNSSGSITCLQNGWSAQPICIKFCDMPVFENSRAKSNGMRFKLHDTLDYECYDGYEISYGNTTGSIVCGEDGWSHFPTCYNSSEKCGPPPPISNGDTTSFLLKVYVPQSRVEYQCQSYYELQGSNYVTCSNGEWSEPPRCIHPCIITEENMNKNNIQLKGKSDIKYYAKTGDTIEFMCKLGYNANTSVLSFQAVCREGIVEYPRCE
